Laboratory results as given in paper PMC11417369, “DNA sequence and chromatin differentiate sequence-specific transcription factor binding in the human malaria parasite Plasmodium falciparum”.

B1: GTGCAC_site10617 (dsDNA)
DNA 1: GAGGTCTTTTTTAATGTGCACATATATATATATATA
DNA 2: TATATATATATATATGTGCACATTAAAAAAGACCTC
B2: GTGCAC_site10120 (dsDNA)
DNA 1: AAAAACAAACTGTGCATGCACCAAAAAAAAAAAAAA
DNA 2: TTTTTTTTTTTTTTGGTGCATGCACAGTTTGTTTTT
B3: GTGCAC_site9646 (dsDNA)
DNA 1: TGTATATATATCTCAGTGCATTGCAAATTAAAAATT
DNA 2: AATTTTTAATTTGCAATGCACTGAGATATATATACA
B4: GTGCAC_site10422 (dsDNA)
DNA 1: ATCAATAAATAAAATGTGCACATAATATATTAATAC
DNA 2: GTATTAATATATTATGTGCACATTTTATTTATTGAT
B5: GTGCAC_site10672 (dsDNA)
DNA 1: AATTTCAAATTGTATGTGCACATGTAGAAGTACTTT
DNA 2: AAAGTACTTCTACATGTGCACATACAATTTGAAATT
B6: GTGCAC_site9397 (dsDNA)
DNA 1: TGTGTTAGCAAAAAAGTGCACAGGGAAAAAAAAATA
DNA 2: TATTTTTTTTTCCCTGTGCACTTTTTTGCTAACACA
B7: GTGCAC_site9584 (dsDNA)
DNA 1: TGTAATAATATTTATGTGCACATATATTAAACTATA
DNA 2: TATAGTTTAATATATGTGCACATAAATATTATTACA
B8: GTGCAC_site9492 (dsDNA)
DNA 1: GTCAACAAGAATTAAGTGCATAATTTTTTATTAAAT
DNA 2: ATTTAATAAAAAATTATGCACTTAATTCTTGTTGAC
B9: GTGCAC_site10696 (dsDNA)
DNA 1: AATGACTACATAATAGTGCAATATTAAAGAAAATTA
DNA 2: TAATTTTCTTTAATATTGCACTATTATGTAGTCATT
B10: GTGCAC_site10480 (dsDNA)
DNA 1: GGTATTTATGGACGCGTGCACACACATATGAACAAA
DNA 2: TTTGTTCATATGTGTGTGCACGCGTCCATAAATACC
B11: GTGCAC_site9497 (dsDNA)
DNA 1: TAATTGAGCAAATGAGTGCACAGCATAAAGTATAGT
DNA 2: ACTATACTTTATGCTGTGCACTCATTTGCTCAATTA
B12: GTGCAC_site9886 (dsDNA)
DNA 1: ATTTATTTATATTTAGTGCAATACTATTTTTAAATA
DNA 2: TATTTAAAAATAGTATTGCACTAAATATAAATAAAT
B13: GTGCAC_site9469 (dsDNA)
DNA 1: ACAAAAAAAAACGTGGTGCATTAATAATATTGTATA
DNA 2: TATACAATATTATTAATGCACCACGTTTTTTTTTGT
B14: GTGCAC_site10106 (dsDNA)
DNA 1: ATATTTTATATATTTGTGCACAATATTATAATATAT
DNA 2: ATATATTATAATATTGTGCACAAATATATAAAATAT
B15: GTGCAC_site10425 (dsDNA)
DNA 1: CATGAGGTATAAAAGGTGCAAATTAATGAGAACATT
DNA 2: AATGTTCTCATTAATTTGCACCTTTTATACCTCATG
B16: GTGCAC_site9657 (dsDNA)
DNA 1: CATAATTTAAAAAAGGTGCAAAATGGATAATATATA
DNA 2: TATATATTATCCATTTTGCACCTTTTTTAAATTATG
B17: GTGCAC_site10318 (dsDNA)
DNA 1: ATATATATATATATAGTGCAAATATCTTCTTTATAA
DNA 2: TTATAAAGAAGATATTTGCACTATATATATATATAT
B18: GTGCAC_site10596 (dsDNA)
DNA 1: AAAATTTATAGTATGGTGCATAAAAATATATATATA
DNA 2: TATATATATATTTTTATGCACCATACTATAAATTTT
B19: GTGCAC_site10138 (dsDNA)
DNA 1: TATTTATAAATATGTGTGCACAATTTATTTTATAAT
DNA 2: ATTATAAAATAAATTGTGCACACATATTTATAAATA
B20: GTGCAC_site10127 (dsDNA)
DNA 1: ACATATAAATATTGTGTGCACACACATAATATATAT
DNA 2: ATATATATTATGTGTGTGCACACAATATTTATATGT
B21: GTGCAC_site10461 (dsDNA)
DNA 1: TTTATACATACATTCGTGCACATACGTATAACATAT
DNA 2: ATATGTTATACGTATGTGCACGAATGTATGTATAAA
B22: GTGCAC_site9631 (dsDNA)
DNA 1: AAAAATAATCATTAGGTGCAAAAAATATATATATAT
DNA 2: ATATATATATATTTTTTGCACCTAATGATTATTTTT
B23: GTGCAC_site9435 (dsDNA)
DNA 1: ATATTTTGTTTTATAGTGCACATGGGCATATATTAA
DNA 2: TTAATATATGCCCATGTGCACTATAAAACAAAATAT
B24: GTGCAC_site10319 (dsDNA)
DNA 1: TCATTTTAAATATGTGTGCACGTTATAATTTACACA
DNA 2: TGTGTAAATTATAACGTGCACACATATTTAAAATGA
B25: GTGCAC_site10605 (dsDNA)
DNA 1: GAAGTAGATGGAAAAGTGCACTGTAATGGTTATATT
DNA 2: AATATAACCATTACAGTGCACTTTTCCATCTACTTC
B26: GTGCAC_site10384 (dsDNA)
DNA 1: TTTTCTTGGTTCAGTGTGCACTTATATATATATATA
DNA 2: TATATATATATATAAGTGCACACTGAACCAAGAAAA
B27: GTGCAC_site10210 (dsDNA)
DNA 1: ATTGAATATGGATATGTGCACATATGTATATAAGTA
DNA 2: TACTTATATACATATGTGCACATATCCATATTCAAT
B28: GTGCAC_site10307 (dsDNA)
DNA 1: AAATAATTAGAAATAGTGCACATAATTAAGGGATAC
DNA 2: GTATCCCTTAATTATGTGCACTATTTCTAATTATTT
B29: GTGCAC_site10060 (dsDNA)
DNA 1: TCTTTTTCTTCTTATGTGCACATCAATTATGCTTCT
DNA 2: AGAAGCATAATTGATGTGCACATAAGAAGAAAAAGA
B30: GTGCAC_site10288 (dsDNA)
DNA 1: ATAGATCCTAATGTTGTGCACATGTAAATTAATATA
DNA 2: TATATTAATTTACATGTGCACAACATTAGGATCTAT
B31: GTGCAC_site10231 (dsDNA)
DNA 1: TTCCAAGAAATAATAGTGCATTATTCATTTTAATAA
DNA 2: TTATTAAAATGAATAATGCACTATTATTTCTTGGAA
B32: GTGCAC_site10104 (dsDNA)
DNA 1: CTTATAAGAATACTAGTGCACATAATTTAACGAAAA
DNA 2: TTTTCGTTAAATTATGTGCACTAGTATTCTTATAAG
B33: GTGCAC_site9637 (dsDNA)
DNA 1: GGAAAATATGTTTGTGTGCACAGCTAGCTATTTGTA
DNA 2: TACAAATAGCTAGCTGTGCACACAAACATATTTTCC
B34: GTGCAC_site10550 (dsDNA)
DNA 1: TAAACGTTAGTATGTGTGCACATTAGTAATTTAAAA
DNA 2: TTTTAAATTACTAATGTGCACACATACTAACGTTTA
B35: GTGCAC_site10546 (dsDNA)
DNA 1: ATGAAATATTTATTTGTGCACTTAATTTGTTGGAAA
DNA 2: TTTCCAACAAATTAAGTGCACAAATAAATATTTCAT
B36: GTGCAC_site10212 (dsDNA)
DNA 1: TATATATATATATATGTGCACATATATATGATATTA
DNA 2: TAATATCATATATATGTGCACATATATATATATATA
B37: GTGCAC_site9581 (dsDNA)
DNA 1: TTATTACACACATATGTGCACATATAAAAGTACACG
DNA 2: CGTGTACTTTTATATGTGCACATATGTGTGTAATAA
B38: GTGCAC_site10676 (dsDNA)
DNA 1: TTTTGTTATTTTTTAGTGCATATAAAGGTTGTTAAG
DNA 2: CTTAACAACCTTTATATGCACTAAAAAATAACAAAA
B39: GTGCAC_site9799 (dsDNA)
DNA 1: TATTATAATATATTTGTGCACATAATATCTCCGCTA
DNA 2: TAGCGGAGATATTATGTGCACAAATATATTATAATA
B40: GTGCAC_site9896 (dsDNA)
DNA 1: TCTTACGGATTCATTGTGCACATATATATATATATA
DNA 2: TATATATATATATATGTGCACAATGAATCCGTAAGA
B41: GTGCAC_site9948 (dsDNA)
DNA 1: CTTAAATTAATTTGGGTGCATATATTTGTACACATT
DNA 2: AATGTGTACAAATATATGCACCCAAATTAATTTAAG
B42: GTGCAC_site10777 (dsDNA)
DNA 1: ATAATATATACGTGTGTGCACATGACAAAAGCATAT
DNA 2: ATATGCTTTTGTCATGTGCACACACGTATATATTAT
B43: GTGCAC_site9416 (dsDNA)
DNA 1: TTTCAAAAAAATAATGTGCACATTAGAAAATAAATA
DNA 2: TATTTATTTTCTAATGTGCACATTATTTTTTTGAAA
B44: GTGCAC_site10725 (dsDNA)
DNA 1: TTTTGTTATTTTGAAGTGCACTTTCCACTTAATATA
DNA 2: TATATTAAGTGGAAAGTGCACTTCAAAATAACAAAA

Molecular target: T1, HDP1 homeodomain-like (Plasmodium falciparum, UniProt Q8IKH4 2990-3078)
T1 sequence: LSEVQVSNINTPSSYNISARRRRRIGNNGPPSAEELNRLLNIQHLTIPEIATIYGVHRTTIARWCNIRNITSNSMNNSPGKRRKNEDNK
Assay: gcPBM; about 25 ug protein; PBS, 1% milk, 0.2 mg/ml BSA, salmon testes DNA, 0.03% Triton X-100
Settings: tags: N-terminal GST (pGEX-4T-1), kept; chain copies: 2; label: surface-attached array probe

In order of falling binding signal:
1. B4  11.1 ln median PBM intensity, better of two orientations
2. B5  11.1 ln median PBM intensity, better of two orientations
3. B7  11.1 ln median PBM intensity, better of two orientations
4. B27  11.1 ln median PBM intensity, better of two orientations
5. B37  11.1 ln median PBM intensity, better of two orientations
6. B39  11.1 ln median PBM intensity, better of two orientations
7. B40  11.1 ln median PBM intensity, better of two orientations
8. B42  11.1 ln median PBM intensity, better of two orientations
9. B1  11 ln median PBM intensity, better of two orientations
10. B19  11 ln median PBM intensity, better of two orientations
11. B30  11 ln median PBM intensity, better of two orientations
12. B33  11 ln median PBM intensity, better of two orientations
13. B28  10.9 ln median PBM intensity, better of two orientations
14. B14  10.8 ln median PBM intensity, better of two orientations
15. B29  10.8 ln median PBM intensity, better of two orientations
16. B11  10.7 ln median PBM intensity, better of two orientations
17. B44  10.7 ln median PBM intensity, better of two orientations
18. B18  10.6 ln median PBM intensity, better of two orientations
19. B25  10.6 ln median PBM intensity, better of two orientations
20. B34  10.6 ln median PBM intensity, better of two orientations
21. B20  10.5 ln median PBM intensity, better of two orientations
22. B43  10.5 ln median PBM intensity, better of two orientations
23. B9  10.4 ln median PBM intensity, better of two orientations
24. B10  10.4 ln median PBM intensity, better of two orientations
25. B2  10.3 ln median PBM intensity, better of two orientations
26. B36  10.3 ln median PBM intensity, better of two orientations
27. B26  10.2 ln median PBM intensity, better of two orientations
28. B16  10.1 ln median PBM intensity, better of two orientations
29. B21  10.1 ln median PBM intensity, better of two orientations
30. B32  10 ln median PBM intensity, better of two orientations
31. B12  9.95 ln median PBM intensity, better of two orientations
32. B15  9.91 ln median PBM intensity, better of two orientations
33. B35  9.86 ln median PBM intensity, better of two orientations
34. B22  9.83 ln median PBM intensity, better of two orientations
35. B17  9.8 ln median PBM intensity, better of two orientations
36. B41  9.77 ln median PBM intensity, better of two orientations
37. B13  9.75 ln median PBM intensity, better of two orientations
38. B23  9.71 ln median PBM intensity, better of two orientations
39. B3  9.68 ln median PBM intensity, better of two orientations
40. B8  9.67 ln median PBM intensity, better of two orientations
41. B24  9.66 ln median PBM intensity, better of two orientations
42. B38  9.65 ln median PBM intensity, better of two orientations
43. B31  9.61 ln median PBM intensity, better of two orientations
44. B6  9.59 ln median PBM intensity, better of two orientations
